# Measured values published in patent US20250018037A1 (SEOUL NATIONAL UNIVERSITY R AND DB FOUNDATION, published 2025).
# No end group written: not given here.
# Columns and labels:
# [1] = biological target: Mouse CD40 on cells (A20 lymphoma cells, EL4-mCD40 cells, peritoneal macrophages, splenic dendritic cells) (mouse) (UniProt P27512); assay: flow cytometry on A20 cells, anti-human Ck-APC (axis hCk); negative control
# [2] = biological target: T1, Human CD40 on cells (Raji, Daudi, IM-9) (human, UniProt P25942 21-277); assay: flow cytometry on Raji cells, 1 ug/1x10^5 cells, anti-human Ck-APC (axis hCk); negative control
# T1 construct: whole, on cells; also called cell surface CD40; hCD40
# [3] = biological target: T2, Recombinant mouse CD40-Fc (1215-CD, R&D systems) (mouse, UniProt P27512 24-193, limits assumed); assay: ELISA, mouse CD40-Fc coated at 2.5 ug/ml, serial dilutions 0.0001 to 1000 nM, anti-human Ck-HRP, absorbance 450 nm
# T2 construct: Bought protein; also called recombinant CD40 protein
# T2 sequence (looked up): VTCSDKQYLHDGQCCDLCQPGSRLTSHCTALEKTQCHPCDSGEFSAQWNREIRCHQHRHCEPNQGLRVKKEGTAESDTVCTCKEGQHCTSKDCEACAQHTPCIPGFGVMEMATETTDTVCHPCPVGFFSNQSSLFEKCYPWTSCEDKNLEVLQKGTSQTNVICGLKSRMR
# Procedure: FIG. 8A: Recombinant mouse CD40-Fc (2.5 μg/ml) was coated in ELISA plate and the serial diluents of C1C02-Cκ or the irrelevant scFv-Cκ were loaded. The bound scFv-Cκs were detected by a secondary anti-human Cκ-HRP followed by a chromogenic reaction with TMB substrate. The absorbance was measured at 450 nm. […] FIG. 8B: A20, a CD40-expressing mouse B lymphoma cell line, was stained with C1C02-Cκ (1 μg/1×10⁵ cells) or the irrelevant scFv-Cκ and then stained with a secondary anti-human Cκ-APC. The binding intensity of the scFv-Cκs was analyzed by flow cytometry. The numbers are the mean fluorescence intensities (MFIs) of the binding.
# (§1) White leghorn chickens were immunized four times with recombinant mouse CD40 (50324-M08H, Sino Biological, China) or human CD40 (10774-H08H, Sino Biological) protein. Total RNA from the bursa of Fabricius, spleen, and bone marrow was isolated using TRIzol reagent (Invitrogen, USA), and cDNA was synthesized using a SuperScript III first-strand cDNA synthesis kit with oligo (dT) primers (Invitrogen) according to the manufacturer's instructions. The scFv phage-display libraries were constructed from the cDNAs as described previously⁵¹. […] The binding of the scFv-Cκs was measured with the secondary antibody (anti-human Cκ-HRP; AP502P, Sigma-Aldrich, USA).
# [4] = biological target: T3, BSA-conjugated c-Myc peptide (also: conjugated to BSA by thiol-maleimide reaction, thiol residue not given here); assay: indirect ELISA after bio-panning against BSA-conjugated c-Myc peptide
# T3 construct: also called the antigen
# T3 peptide: EQKLISEEDL
# [5] = biological target: T4, Recombinant human CD40-Fc (1493-CDB, R&D systems) (human, UniProt P25942 21-193); assay: ELISA, human CD40-Fc coated at 2.5 ug/ml, serial dilutions 0.0001 to 1000 nM, anti-human Ck-HRP, absorbance 450 nm
# T4 construct: Bought protein; also called human CD40 recombinant proteins
# Procedure: FIG. 13A: Recombinant human CD40-Fc (2.5 μg/ml) was coated in ELISA plate and the serial diluents of 2B1-Ck, 2E1-Ck and irrelevant scFv antibody-Ck were loaded. The bound scFv-Cκs were detected by a secondary anti-human Cκ-HRP followed by chromogenic reaction with TMB substrate. The absorbance was measured at 450 nm. […] FIG. 13B: Raji, a CD40-expressing human B lymphoma cell line, was stained with 2B1-Ck, 2E1-Ck or the irrelevant scFv-Cκ (1 μg/1×10⁵ cells), and then stained with secondary anti-human Ck-APC. The binding intensity of the scFv-Cκs were analyzed by flow cytometry. The numbers are mean fluorescence intensities (MFIs) of the binding.
# as §1
# [6] = biological target: T5, BSA (bovine serum albumin) (bovine, UniProt P02769 25-607); assay: serial dilution ELISA on wells with blocking only (the legend calls this the binding to BSA), OD at 405 nm
# T5 construct: Control antigen in the phage ELISA
# Procedure: (§2) FIGS. 20A-C The individual specific binders are screened by ELISA and 23 different scFv clones were further characterized by sequencing. FIG. 20A: Reactivity of the selected scFv clones to human CS1 was assayed by measuring absorbance at 405 nm. The individual scFv clones were reactive to human CS1-His (▪) and human CS1-Fc ( ), but not hFc ( ) or BSA (□).Binding activity determination of selected clones specific to human CS1. The three clones selected from the phage ELISA were verified in a serial dilution ELISA after expression and purification as a form of scFv-Cκ-His. The y-axis of the graphs depicts the signal for serial dilutions of the antibodies, and the x-axis depicts the antibody concentration in the wells of the dilution series. The binding to human CS1-Fc is indicated as red, while the binding to BSA is indicated as blue. […] FIG. 20B: Binding activity of anti-human CS1 cFv-Cκ-His on J558/CS1 or J558 cells measured using flow cytometry. […] Binding of scFv adapters were detected by adding APC conjugated anti-human Cκ antibodies or APC conjugated anti-His tag secondary antibodies. FIG. 20C: Binding activity of anti-human CS1 scFv-Cκ-His on MM1.s cells measured using flow cytometry. Binding of the antibodies were detected by adding either an APC conjugated anti-human Cκ antibodies, or an APC conjugated anti-His tag secondary antibodies, respectively. […]
# [7] = biological target: T6, Human CS1-Fc fusion protein (CS1 ectodomain S23~M226 with C-terminal human IgG1 Fc) (human, UniProt Q9NQ25 23-226); assay: serial dilution ELISA of purified scFv-Cκ-His on coated hCS1-Fc, OD at 405 nm, detection with anti-human Cκ-HRP
# T6 construct: range 23-226; Made in-house in Expi293 cells; also called recombinant CS1-Fc fusion protein; not shown: C-terminal human IgG1 Fc
# T6 sequence (looked up): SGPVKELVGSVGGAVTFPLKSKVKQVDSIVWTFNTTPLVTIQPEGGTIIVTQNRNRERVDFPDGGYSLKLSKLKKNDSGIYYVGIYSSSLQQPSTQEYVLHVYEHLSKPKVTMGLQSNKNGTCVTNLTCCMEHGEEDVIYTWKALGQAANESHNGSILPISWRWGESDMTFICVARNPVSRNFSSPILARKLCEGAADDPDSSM
# Procedure: as §2
# T4 sequence (P25942 21-193 limits assumed): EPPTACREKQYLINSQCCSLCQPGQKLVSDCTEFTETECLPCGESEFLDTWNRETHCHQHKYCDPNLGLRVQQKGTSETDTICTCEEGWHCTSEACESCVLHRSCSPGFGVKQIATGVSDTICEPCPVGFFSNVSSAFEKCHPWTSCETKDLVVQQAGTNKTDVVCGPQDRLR
# T5 sequence (P02769 25-607 limits assumed): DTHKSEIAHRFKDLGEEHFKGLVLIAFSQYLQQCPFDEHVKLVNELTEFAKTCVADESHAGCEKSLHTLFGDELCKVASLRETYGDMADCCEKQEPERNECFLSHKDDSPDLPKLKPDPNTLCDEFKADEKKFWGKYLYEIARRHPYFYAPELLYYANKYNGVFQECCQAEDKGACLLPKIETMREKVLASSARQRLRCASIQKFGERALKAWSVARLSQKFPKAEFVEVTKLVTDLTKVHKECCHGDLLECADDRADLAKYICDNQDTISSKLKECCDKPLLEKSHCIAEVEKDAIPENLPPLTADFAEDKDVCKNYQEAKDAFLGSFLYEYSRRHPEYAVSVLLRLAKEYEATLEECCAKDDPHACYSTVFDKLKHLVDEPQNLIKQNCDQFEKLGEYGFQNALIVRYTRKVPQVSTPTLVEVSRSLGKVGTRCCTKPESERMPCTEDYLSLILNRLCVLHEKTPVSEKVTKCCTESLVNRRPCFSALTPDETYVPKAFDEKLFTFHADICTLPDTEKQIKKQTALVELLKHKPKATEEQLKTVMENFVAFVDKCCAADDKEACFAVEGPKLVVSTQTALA
# T1 sequence (P25942 21-277): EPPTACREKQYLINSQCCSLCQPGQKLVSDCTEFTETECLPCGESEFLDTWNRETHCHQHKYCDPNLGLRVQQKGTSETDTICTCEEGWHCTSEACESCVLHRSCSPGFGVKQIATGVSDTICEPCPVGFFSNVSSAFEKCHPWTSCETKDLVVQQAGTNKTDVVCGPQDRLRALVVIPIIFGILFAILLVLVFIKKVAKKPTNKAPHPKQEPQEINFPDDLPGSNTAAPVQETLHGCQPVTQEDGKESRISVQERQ
# Sequence of Mouse CD40 on cells (A20 lymphoma cells, EL4-mCD40 cells, peritoneal macrophages, splenic dendritic cells) (mouse) (P27512 20-289): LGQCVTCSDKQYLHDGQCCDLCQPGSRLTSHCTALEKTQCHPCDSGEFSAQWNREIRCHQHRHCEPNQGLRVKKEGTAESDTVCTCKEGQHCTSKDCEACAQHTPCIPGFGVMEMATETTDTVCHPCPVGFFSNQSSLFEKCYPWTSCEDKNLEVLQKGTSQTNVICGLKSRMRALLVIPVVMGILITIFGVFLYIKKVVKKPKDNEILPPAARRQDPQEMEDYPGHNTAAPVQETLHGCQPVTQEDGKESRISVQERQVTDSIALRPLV
molecule,measurement,setting,value
Irrelevant Ab-Ck (scFv),MFI,[1],24.6
same,MFI,[2],3.78
"C1C02-Cκ (anti-mouse CD40 scFv clone C1C02 fused with human immunoglobulin kappa light chain constant region) (scFv, also called C1C02 scFv; anti-mouse CD40 antibody (clone C1C02)) scFv: QAALTQPSSVSANPGETVKITCSGGSSNYGWYQQKSPGSAPATVIYDNTNRPSDIPSRFSGALSGSTATLTITGVQVEDEAVYYCGGYDSGTYAGIFGAGTTLTVLGQSSRSSGGGGSSGGGGSAVTLDESGGGLQTPGGTLSLACKGSGFTFSSVNMQWVRQAPGKGLEWVAGISSDGSYTAYGAAVKGRATISRDNGQSTVRLQLNNLRAEDTAIYYCAKIAGGYYWDAAYSIDMWGHGTEVIVSSTSGQAGQRTVAAPSVFIFPPSDEQLKSGTASVVCLLNNFYPREAKVQWKVDNALQSGNSQESVTEQDSKDSTYSLSSTLTLSKADYEKHKVYACEVTHQGLSSPVTKSFNRGES",EC50,[3],1.28 nM
"Anti-Myc scFv clone 8A9 (scFv, Selected from a chicken scFv phage library by indirect ELISA) scFv: QAALTQPSSVSANPGETVEITCSGGSSGYYGWHQQKSPGSAPVTVIYENTNRPSDIPSRFSGSKSGSTATLTITGVQADDEAVYFCGSYDSSSASGIFGAGTTLTVLGQSSRSSGGGGSSGGGGSAVTLDESGGGLQTPGGGLSLVCKASGFTFSSYDMAWVRQEPGKGLEYVASISRSGRYTRYGPAVKGRATISRDNGQSTVRLQLNNLRAEDTATYFCTRGGAVSIDTWGHGTEVIVSS",binding result,[4],binds
"2E1-Cκ (anti-human CD40 scFv clone 2E1 fused with human Cκ) (scFv, also called 2E1-Ck) scFv: QAALTQPSSVSANPGETVKITCSGSSSSYYGWYQQKAPGSAPVTLIYANDKRPSDIPSRFSGSKSGSTHTLTITGVQADDEAVYFCGSADSTDSGFGAGTTLTVLGQSSRSSGGGGSSGGGGSAVTLDESGGGLQTPGGALSLVCKASGFSFSSYSMHWVRQAPGKGLEFVAAISSDGSRYTHYGPAVKGRATISRDNGQSTVRLQLNNLRPEDTGTYYCAKTSNTWTWNTGWIDAWGHGTEVIVSSTSGQAGQRTVAAPSVFIFPPSDEQLKSGTASVVCLLNNFYPREAKVQWKVDNALQSGNSQESVTEQDSKDSTYSLSSTLTLSKADYEKHKVYACEVTHQGLSSPVTKSFNRGES",EC50,[5],1.06 nM
"hCS1(#57)-Ck-His (anti-human CS1 scFv-Cκ-(G4S)2-6×His, clone #57) (scFv, also called #57 clone; His tagged CS1 adaptor) scFv: QAALTQPSSVSANLGETVKITCSGSSGNNYGWYQQKSPGSAPVTVIYYNDNRPSDIPSRFSGSKSGSTHTLTITGVQADDEAVYFCGSGDSSSNPGIFGAGTTLTVLGQSSRSSGGGGSSGGGGSAVTLDESGGGLQTPGGALSLVCKASGFTFSSHGMAWVRQAPGKGLEWVAGIDDSGSSTGYGSAVKGRATISRDNGQSTVRLQLNNLRAEDTGIYYCAKAYDTGCGWAGYNVYDCSADQIDAWGHGTEVIVSSTSGQAGQRTVAAPSVFIFPPSDEQLKSGTASVVCLLNNFYPREAKVQWKVDNALQSGNSQESVTEQDSKDSTYSLSSTLTLSKADYEKHKVYACEVTHQGLSSPVTKSFNRGESGGGGSGGGGSHHHHHH",binding result,[6],no binding
same,EC50,[7],9.3 nM
"2B1-Cκ (anti-human CD40 scFv clone 2B1 fused with human Cκ) (scFv, also called 2B1-Ck; free 2B1) scFv: QAALTQPSSVSANPGETVKITCSGGDSYAGSYYYGWFQQKAPGSAPVTVIYYNDKRPSDIPSRFSGSTSGSTSTLTITGVQAEDEAVYYCGSIDTSSGTGIFGAGTTLTVLGQSSRSSGGGGSSGGGGSAVTLDESGGGLQTPGGALSLVCKGSGFTFSSYQMFWVRQAPGKGLEYVAEISGSGLSTWYAPAVKGRATISRDNGQSTVRLQLNNLRAEDTGTYYCAKAAGSCGVGTCAGGIVDGIDAWGHGTEVIVSSTSGQAGQRTVAAPSVFIFPPSDEQLKSGTASVVCLLNNFYPREAKVQWKVDNALQSGNSQESVTEQDSKDSTYSLSSTLTLSKADYEKHKVYACEVTHQGLSSPVTKSFNRGES",EC50,[5],0.365 nM
"hCS1(#87)-Ck-His (anti-human CS1 scFv-Cκ-(G4S)2-6×His, clone #87) (scFv, also called #87 clone; His tagged CS1 adaptor) scFv: QAALTQPSSVSANPGETVKITCSGGGSYYGWYQQKSPGSAPVTVIYGNDKRPSNIPSRFSGSKSGSTATLTITGVQVEDEAVYFCGGWDSTDAGTFGAGTTLTVLGQSSRSSGGGGSSGGGGSAVTLDESGGGLQTPGGGLSLVCKASGFTFSSHGMAWVRQAPGKGLEWVAGIDDSGSSTGYGSAVKGRATISRDNGQSTVRLQLNNLRAEDTGIYYCAKAYDTGCGWAGYNVYDCSADQIDAWGHGTEVIVSSTSGQAGQRTVAAPSVFIFPPSDEQLKSGTASVVCLLNNFYPREAKVQWKVDNALQSGNSQESVTEQDSKDSTYSLSSTLTLSKADYEKHKVYACEVTHQGLSSPVTKSFNRGESGGGGSGGGGSHHHHHH",binding result,[6],no binding
same,EC50,[7],2.9 nM
